{"source": "the Human Domainome abundance scans (Beltran et al. 2025)", "parents": {"B1": {"name": "Protein C-ets-1, residues 55 to 135; numbered along this chain, P14921 (parent)", "chain": "GFTKEQQRLGIPKDPRQWTETHVRDWVMWAVNEFSLKGVDFQKFCMNGAALCALGKDCFLELAPDFVGDILWEHLEILQKE"}}, "note": "± gives the uncertainty stated by the source."}
{"variants_of": "B1", "test": "abundance fitness (aPCA) (normalised: wild type 0, dead -1); higher = more abundant; growth selection in yeast, the domain comes from the species named", "conditions": "Homo sapiens"}
{"variant": "M46G", "abundance fitness": "-0.671 ± 0.046"}
{"variant": "M46Q", "abundance fitness": "-0.335 ± 0.065"}
{"variant": "F34A", "abundance fitness": "-0.493 ± 0.032"}
{"variant": "F34Y", "abundance fitness": "-0.023 ± 0.052"}
{"variant": "F34K", "abundance fitness": "-0.175 ± 0.046"}
{"variant": "F34P", "abundance fitness": "-0.886 ± 0.06"}
{"variant": "F34S", "abundance fitness": "-0.52 ± 0.033"}
{"variant": "G48M", "abundance fitness": "-1.07 ± 0.23"}
{"variant": "G48W", "abundance fitness": "-0.797 ± 0.11"}
{"variant": "G48Q", "abundance fitness": "-0.931 ± 0.14"}
{"variant": "G48N", "abundance fitness": "-0.758 ± 0.2"}
{"variant": "I70K", "abundance fitness": "-0.065 ± 0.066"}
{"variant": "I70E", "abundance fitness": "-0.365 ± 0.052"}
{"variant": "I70L", "abundance fitness": "-0.077 ± 0.037"}
{"variant": "I70C", "abundance fitness": "-0.088 ± 0.059"}
{"variant": "I70Y", "abundance fitness": "-0.146 ± 0.067"}
{"variant": "W29E", "abundance fitness": "-0.561 ± 0.068"}
{"variant": "W29I", "abundance fitness": "-0.803 ± 0.11"}
{"variant": "Q7A", "abundance fitness": "-0.055 ± 0.031"}
{"variant": "Q7S", "abundance fitness": "-0.069 ± 0.039"}
{"variant": "Q7M", "abundance fitness": "0.04 ± 0.057"}
{"variant": "Q7L", "abundance fitness": "-0.02 ± 0.034"}
{"variant": "Q7D", "abundance fitness": "0 ± 0.075"}
{"variant": "Q7W", "abundance fitness": "-0.133 ± 0.048"}
{"variant": "Q7C", "abundance fitness": "-0.256 ± 0.06"}
{"variant": "K13N", "abundance fitness": "0.008 ± 0.11"}
{"variant": "K13M", "abundance fitness": "-0.086 ± 0.11"}
{"variant": "K13R", "abundance fitness": "-0.077 ± 0.034"}
{"variant": "K13F", "abundance fitness": "-0.152 ± 0.057"}
{"variant": "K13Y", "abundance fitness": "-0.249 ± 0.11"}
{"variant": "K13H", "abundance fitness": "-0.04 ± 0.084"}
{"variant": "C58F", "abundance fitness": "-0.096 ± 0.051"}
{"variant": "C58R", "abundance fitness": "0.023 ± 0.027"}
{"variant": "C58K", "abundance fitness": "-0.007 ± 0.062"}
{"variant": "V27H", "abundance fitness": "-0.931 ± 0.19"}
{"variant": "V27P", "abundance fitness": "-0.86 ± 0.076"}
{"variant": "V27E", "abundance fitness": "-1 ± 0.11"}
{"variant": "V27N", "abundance fitness": "-0.796 ± 0.16"}
{"variant": "G55T", "abundance fitness": "0.041 ± 0.04"}
{"variant": "G55M", "abundance fitness": "-0.433 ± 0.051"}
{"variant": "G55K", "abundance fitness": "0.029 ± 0.059"}
{"variant": "G55V", "abundance fitness": "-0.448 ± 0.036"}
{"variant": "G55F", "abundance fitness": "-0.992 ± 0.15"}
{"variant": "G55D", "abundance fitness": "0.061 ± 0.053"}
{"variant": "A49H", "abundance fitness": "-0.058 ± 0.048"}
{"variant": "A49C", "abundance fitness": "-0.372 ± 0.036"}
{"variant": "A49V", "abundance fitness": "-0.162 ± 0.023"}
{"variant": "A49L", "abundance fitness": "-0.132 ± 0.025"}
{"variant": "A49K", "abundance fitness": "0.085 ± 0.05"}
{"variant": "A49E", "abundance fitness": "0.02 ± 0.03"}
{"variant": "E33G", "abundance fitness": "-0.539 ± 0.03"}
{"variant": "H22S", "abundance fitness": "-0.472 ± 0.044"}
{"variant": "H22A", "abundance fitness": "-0.33 ± 0.032"}
{"variant": "H22L", "abundance fitness": "-0.687 ± 0.061"}
{"variant": "H22Y", "abundance fitness": "-0.625 ± 0.15"}
{"variant": "H22I", "abundance fitness": "-0.881 ± 0.17"}
{"variant": "L51K", "abundance fitness": "-1.08 ± 0.15"}
{"variant": "L51N", "abundance fitness": "-0.718 ± 0.17"}
{"variant": "L51D", "abundance fitness": "-0.97 ± 0.073"}
{"variant": "L51Y", "abundance fitness": "-0.94 ± 0.21"}
{"variant": "L51F", "abundance fitness": "-0.894 ± 0.12"}
{"variant": "L51H", "abundance fitness": "-0.813 ± 0.14"}
{"variant": "E5Y", "abundance fitness": "-0.045 ± 0.1"}
{"variant": "E5T", "abundance fitness": "-0.117 ± 0.069"}
{"variant": "E5W", "abundance fitness": "-0.186 ± 0.066"}
{"variant": "E5D", "abundance fitness": "-0.216 ± 0.085"}
{"variant": "K43E", "abundance fitness": "-0.283 ± 0.049"}
{"variant": "K43F", "abundance fitness": "-0.494 ± 0.058"}
{"variant": "M28G", "abundance fitness": "-0.055 ± 0.028"}
{"variant": "M28S", "abundance fitness": "0.017 ± 0.033"}
{"variant": "M28C", "abundance fitness": "-0.006 ± 0.054"}
{"variant": "M28T", "abundance fitness": "0.07 ± 0.045"}
{"variant": "G10C", "abundance fitness": "-0.15 ± 0.044"}
{"variant": "G10D", "abundance fitness": "0.015 ± 0.058"}
{"variant": "G10E", "abundance fitness": "-0.067 ± 0.045"}
{"variant": "L62C", "abundance fitness": "-0.265 ± 0.048"}
{"variant": "L62K", "abundance fitness": "-0.195 ± 0.066"}
{"variant": "L62P", "abundance fitness": "-0.954 ± 0.11"}
{"variant": "L62H", "abundance fitness": "-0.438 ± 0.11"}
{"variant": "L62R", "abundance fitness": "-0.103 ± 0.031"}
{"variant": "D40G", "abundance fitness": "-0.546 ± 0.041"}
{"variant": "D40V", "abundance fitness": "-0.209 ± 0.047"}
{"variant": "D40T", "abundance fitness": "-0.363 ± 0.065"}
